The source of these data is article PMC4860839, “Structures of the APC–ARM domain in complexes with discrete Amer1/WTX fragments reveal that it uses a consensus mode to recognize its binding partners” (Cell Discovery, 2015).

Assay [1] addresses FL Amer1/WTX (pcDNA-Flag-Amer1) (not stated (human or mouse cDNA cloned)) (UniProt Q5JTC6). Description: co-IP; HEK293T cells transiently transfected; immunoprecipitation with anti-GFP or anti-FLAG M2 beads, western blot.
The target in assay [2] is T1, APC–ARM, human APC (407–751), N-terminally His-tagged (human, UniProt P25054 407-751).
T1 construct: human APC, armadillo repeat (ARM) domain, residues 407–751; source: E. coli BL21(DE3), purified (Ni2+-NTA, Superdex200)
T1 sequence (looked up): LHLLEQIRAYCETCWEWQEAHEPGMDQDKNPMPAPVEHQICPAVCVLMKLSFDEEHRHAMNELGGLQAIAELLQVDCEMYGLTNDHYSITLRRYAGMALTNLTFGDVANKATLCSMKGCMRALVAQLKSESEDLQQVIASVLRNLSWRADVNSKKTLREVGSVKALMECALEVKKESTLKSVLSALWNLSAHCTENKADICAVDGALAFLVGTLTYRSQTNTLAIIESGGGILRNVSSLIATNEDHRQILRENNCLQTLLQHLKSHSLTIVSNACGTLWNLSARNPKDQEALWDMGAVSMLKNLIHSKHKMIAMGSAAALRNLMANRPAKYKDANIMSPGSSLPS
Description: pull-down; competition: GST-Amer1-A2/APC–ARM complex (0.5 mg/ml, 4 ml) preloaded on the GST column at 4 °C; 0.1, 0.2, 0.5, 1 mg/ml Asef ABR-SH3 (0.5 ml) added; SDS–PAGE, Coomassie. As to conditions: both partners purified.

FL Amer1/WTX (pcDNA-Flag-Amer1) (not stated (human or mouse cDNA cloned)), sequence (Q5JTC6 whole entry): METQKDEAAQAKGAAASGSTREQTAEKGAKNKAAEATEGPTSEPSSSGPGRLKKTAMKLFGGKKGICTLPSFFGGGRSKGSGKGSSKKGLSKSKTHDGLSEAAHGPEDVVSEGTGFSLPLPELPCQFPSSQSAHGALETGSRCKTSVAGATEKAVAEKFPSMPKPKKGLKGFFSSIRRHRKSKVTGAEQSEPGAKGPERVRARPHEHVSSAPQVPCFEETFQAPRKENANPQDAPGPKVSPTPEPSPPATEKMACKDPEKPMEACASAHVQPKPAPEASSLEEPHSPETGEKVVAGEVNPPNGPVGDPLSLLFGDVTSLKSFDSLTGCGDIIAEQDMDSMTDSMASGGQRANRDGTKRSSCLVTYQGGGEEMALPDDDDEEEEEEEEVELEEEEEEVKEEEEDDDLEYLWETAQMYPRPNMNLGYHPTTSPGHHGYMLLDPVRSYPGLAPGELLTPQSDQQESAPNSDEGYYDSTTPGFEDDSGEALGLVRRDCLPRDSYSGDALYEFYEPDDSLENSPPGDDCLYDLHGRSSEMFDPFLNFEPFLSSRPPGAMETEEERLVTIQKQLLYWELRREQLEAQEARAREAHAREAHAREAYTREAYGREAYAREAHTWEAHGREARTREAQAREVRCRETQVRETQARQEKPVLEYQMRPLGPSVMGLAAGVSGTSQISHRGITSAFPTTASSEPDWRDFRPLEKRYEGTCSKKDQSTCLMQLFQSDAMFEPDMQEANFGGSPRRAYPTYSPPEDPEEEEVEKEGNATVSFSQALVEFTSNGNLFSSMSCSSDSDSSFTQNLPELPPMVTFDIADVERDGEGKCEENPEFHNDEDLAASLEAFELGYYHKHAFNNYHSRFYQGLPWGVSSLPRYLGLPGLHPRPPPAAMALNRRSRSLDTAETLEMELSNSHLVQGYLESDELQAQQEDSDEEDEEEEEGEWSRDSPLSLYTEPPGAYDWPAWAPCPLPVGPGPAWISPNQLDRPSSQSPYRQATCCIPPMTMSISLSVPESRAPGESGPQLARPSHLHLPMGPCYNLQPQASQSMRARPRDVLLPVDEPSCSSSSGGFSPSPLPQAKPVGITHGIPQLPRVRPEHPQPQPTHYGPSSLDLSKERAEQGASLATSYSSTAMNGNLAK

The molecule “pEGFP-APC–ARM-K516E/M717K double mutant (domain or fragment)” had a reduction of association against wild type APC–ARM (densitometry) in assay [1] of 60%.

B1: Asef-ABR-SH3 (residues 170–271) (domain or fragment, human, UniProt Q9NR80 170-271, looked up)
chain: SSSHHYSHPGGGGEQLAINELISDGSVVCAEALWDHVTMDDQELGFKAGDVIEVMDATNREWWWGRVADGEGWFPASFVRLRVNQDEPADDDAPLAGNSGAE
notes: Added as a protein at stated concentrations; its expression and purification are not described; also called ABR-SH3 domain of Asef
With B1, the binding result in assay [2] is reported as “binds”.
